Test results: paper PMC3305447, “A Peptidoglycan Fragment Triggers β-lactam Resistance in Bacillus licheniformis” (PLoS Pathogens, 2012)

Assays:
MecI [1] = target: T1, MecI (Staphylococcus aureus, UniProt P68261); test: agarose-gel EMSA, dissociation of repressor-operator DNA complex; format: binding
T1 construct: full-length with C-terminal His6 (pET22b), recombinant, purified; homodimer; 15N-labelled for NMR
Target sequence in this assay (P68261 1-122): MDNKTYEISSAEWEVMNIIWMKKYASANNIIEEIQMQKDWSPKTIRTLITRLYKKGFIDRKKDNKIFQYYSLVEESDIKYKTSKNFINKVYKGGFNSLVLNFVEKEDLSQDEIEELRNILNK

MecI [2] = target: T1, MecI; test: NMR titration, 1H-15N SOFAST-HMQC chemical shifts; format: binding
[3] = target: Staphylococcus aureus MecI repressor (MecI-His) (Staphylococcus aureus ATCC 43300) (UniProt P68261)
[4] = target: Staphylococcus aureus MecI repressor (MecI-His) (Staphylococcus aureus ATCC 43300) (UniProt P68261); test: native gel or EMSA
[5] = target: Bacillus licheniformis 749/I BlaI repressor (BlaI-His) (Bacillus licheniformis 749/I) (UniProt P06555)
Bacillus licheniformis 749/I BlaI repressor (BlaI-His) (Bacillus licheniformis 749/I), sequence (P06555 whole entry): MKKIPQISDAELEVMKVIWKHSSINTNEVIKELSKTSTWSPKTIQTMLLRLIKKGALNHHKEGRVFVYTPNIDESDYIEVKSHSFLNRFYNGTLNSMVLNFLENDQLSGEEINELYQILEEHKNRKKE

Staphylococcus aureus MecI repressor (MecI-His) (Staphylococcus aureus ATCC 43300), sequence (P68261 whole entry): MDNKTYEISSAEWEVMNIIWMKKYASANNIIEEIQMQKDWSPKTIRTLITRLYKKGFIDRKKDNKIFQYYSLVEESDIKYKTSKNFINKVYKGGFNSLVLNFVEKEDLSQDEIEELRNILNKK

## NCCCC[C@H](NC(=O)CC[C@@H](N)C(=O)O)C(=O)O [dipeptide 2, γ-D-Glu-L-Lys]
MecI [1]
  IC50: ~2000 µM
MecI [2]
  Kd: 8000 ± 2000 µM

## γ-D-Glu-L-Lys dipeptide
[3]
  concentration of dipeptide allowing the displacement of 50% of bound MecI from its nucleic operator (agarose gel EMSA titration, 10 to 50 nmol dipeptide in 20 µl): 2 mM
[4]
  Kd: 2000 µM

## γ-D-Glu-m-A2pm dipeptide
[5]
  concentration of dipeptide allowing the displacement of 50% of bound BlaI from its nucleic operator (agarose gel EMSA titration, 10 to 50 nmol dipeptide in 20 µl): 2 mM
